Measurements from paper PMC7367873, “Dissecting the sequence determinants for dephosphorylation by the catalytic subunits of phosphatases PP1 and PP2A” (Nature Communications, 2020).

B1: HNRNPC (protein, UniProt P07910 2-306, looked up)
Heterogeneous nuclear …: ASNVTNKTDPRSMNSRVFIGNLNTLVVKKSDVEAIFSKYGKIVGCSVHKGFAFVQYVNERNARAAVAGEDGRMIAGQVLDINLAAEPKVNRGKAGVKRSAAEMYGSVTEHPSPSPLLSSSFDLDYDFQRDYYDRMYSYPARVPPPPPIARAVVPSKRQRVSGNTSRRGKSGFNSKSGQRGSSKSGKLKGDDLQAIKKELTQIKQKVDSLLENLEKIEKEQSKQAVEMKNDKSEEEQSSSSVKKDETNVKMESEGGADDSAEEGDLLDDDDNEDRGDDQLELIKDDEKEAEEGEDDRDSANGEDDS
B2: BASP1 (protein, UniProt P80723 2-227, looked up)
Brain acid soluble protein 1: GGKLSKKKKGYNVNDEKAKEKDKKAEGAATEEEGTPKESEPQAAAEPAEAKEGKEKPDQDAEGKAEEKEGEKDAAAAKEEAPKAEPEKTEGAAEAKAEPPKAPEQEQAAPGPAAGGEAPKAAEAAAAPAESAAPAAGEEPSKEEGEPKKTEAPAAPAAQETKSDGAPASDSKPGSSEAAPSSKETPAATEAPSSTPKAQGPAASAEEPKPVEAPAANSDQTVTVKE
B3: GNAS (protein, UniProt P63092 2-394, looked up)
Guanine nucleotide-binding …: GCLGNSKTEDQRNEEKAQREANKKIEKQLQKDKQVYRATHRLLLLGAGESGKSTIVKQMRILHVNGFNGEGGEEDPQAARSNSDGEKATKVQDIKNNLKEAIETIVAAMSNLVPPVELANPENQFRVDYILSVMNVPDFDFPPEFYEHAKALWEDEGVRACYERSNEYQLIDCAQYFLDKIDVIKQADYVPSDQDLLRCRVLTSGIFETKFQVDKVNFHMFDVGGQRDERRKWIQCFNDVTAIIFVVASSSYNMVIREDNQTNRLQEALNLFKSIWNNRWLRTISVILFLNKQDLLAEKVLAGKSKIEDYFPEFARYTTPEDATPEPGEDPRVTRAKYFIRDEFLRISTASGDGRHYCYPHFTCAVDTENIRRVFNDCRDIIQRMHLRQYELL
B4: SRPRB (protein, UniProt Q9Y5M8 1-271, looked up)
Signal recognition particle …: MASADSRRVADGGGAGGTFQPYLDTLRQELQQTDPTLLSVVVAVLAVLLTLVFWKLIRSRRSSQRAVLLVGLCDSGKTLLFVRLLTGLYRDTQTSITDSCAVYRVNNNRGNSLTLIDLPGHESLRLQFLERFKSSARAIVFVVDSAAFQREVKDVAEFLYQVLIDSMGLKNTPSFLIACNKQDIAMAKSAKLIQQQLEKELNTLRVTRSAAPSTLDSSSTAPAQLGKKGKEFEFSQLPLKVEFLECSAKGGRGDVGSADIQDLEKWLAKIA
B5: MATR3 (protein, UniProt P43243 2-847, looked up)
Matrin-3: SKSFQQSSLSRDSQGHGRDLSAAGIGLLAAATQSLSMPASLGRMNQGTARLASLMNLGMSSSLNQQGAHSALSSASTSSHNLQSIFNIGSRGPLPLSSQHRGDADQASNILASFGLSARDLDELSRYPEDKITPENLPQILLQLKRRRTEEGPTLSYGRDGRSATREPPYRVPRDDWEEKRHFRRDSFDDRGPSLNPVLDYDHGSRSQESGYYDRMDYEDDRLRDGERCRDDSFFGETSHNYHKFDSEYERMGRGPGPLQERSLFEKKRGAPPSSNIEDFHGLLPKGYPHLCSICDLPVHSNKEWSQHINGASHSRRCQLLLEIYPEWNPDNDTGHTMGDPFMLQQSTNPAPGILGPPPPSFHLGGPAVGPRGNLGAGNGNLQGPRHMQKGRVETSRVVHIMDFQRGKNLRYQLLQLVEPFGVISNHLILNKINEAFIEMATTEDAQAAVDYYTTTPALVFGKPVRVHLSQKYKRIKKPEGKPDQKFDQKQELGRVIHLSNLPHSGYSDSAVLKLAEPYGKIKNYILMRMKSQAFIEMETREDAMAMVDHCLKKALWFQGRCVKVDLSEKYKKLVLRIPNRGIDLLKKDKSRKRSYSPDGKESPSDKKSKTDGSQKTESSTEGKEQEEKSGEDGEKDTKDDQTEQEPNMLLESEDELLVDEEEAAALLESGSSVGDETDLANLGDVASDGKKEPSDKAVKKDGSASAAAKKKLKKVDKIEELDQENEAALENGIKNEENTEPGAESSENADDPNKDTSENADGQSDENKDDYTIPDEYRIGPYQPNVPVGIDYVIPKTGFYCKLCSLFYTNEEVAKNTHCSSLPHYQKLKKFLNKLAEERRQKKET
B6: SLC16A3 (protein, UniProt O15427 2-465, looked up)
Monocarboxylate transporter 4: GGAVVDEGPTGVKAPDGGWGWAVLFGCFVITGFSYAFPKAVSVFFKELIQEFGIGYSDTAWISSILLAMLYGTGPLCSVCVNRFGCRPVMLVGGLFASLGMVAASFCRSIIQVYLTTGVITGLGLALNFQPSLIMLNRYFSKRRPMANGLAAAGSPVFLCALSPLGQLLQDRYGWRGGFLILGGLLLNCCVCAALMRPLVVTAQPGSGPPRPSRRLLDLSVFRDRGFVLYAVAASVMVLGLFVPPVFVVSYAKDLGVPDTKAAFLLTILGFIDIFARPAAGFVAGLGKVRPYSVYLFSFSMFFNGLADLAGSTAGDYGGLVVFCIFFGISYGMVGALQFEVLMAIVGTHKFSSAIGLVLLMEAVAVLVGPPSGGKLLDATHVYMYVFILAGAEVLTSSLILLLGNFFCIRKKPKEPQPEVAAAEEEKLHKPPADSGVDLREVEHFLKAEPEKNGEVVHTPETSV
B7: VAPA (protein, UniProt Q9P0L0 2-249, looked up)
Vesicle-associated membrane …: ASASGAMAKHEQILVLDPPTDLKFKGPFTDVVTTNLKLRNPSDRKVCFKVKTTAPRRYCVRPNSGIIDPGSTVTVSVMLQPFDYDPNEKSKHKFMVQTIFAPPNTSDMEAVWKEAKPDELMDSKLRCVFEMPNENDKLNDMEPSKAVPLNASKQDGPMPKPHSVSLNDTETRKLMEECKRLQGEMMKLSEENRHLRDEGLRLRKVAHSDKPGSTSTASFRDNVTSPLPSLLVVIAAIFIGFFLGKFIL
B8: COPB1 (protein, UniProt P53618 2-953, looked up)
Coatomer subunit beta: TAAENVCYTLINVPMDSEPPSEISLKNDLEKGDVKSKTEALKKVIIMILNGEKLPGLLMTIIRFVLPLQDHTIKKLLLVFWEIVPKTTPDGRLLHEMILVCDAYRKDLQHPNEFIRGSTLRFLCKLKEAELLEPLMPAIRACLEHRHSYVRRNAVLAIYTIYRNFEHLIPDAPELIHDFLVNEKDASCKRNAFMMLIHADQDRALDYLSTCIDQVQTFGDILQLVIVELIYKVCHANPSERARFIRCIYNLLQSSSPAVKYEAAGTLVTLSSAPTAIKAAAQCYIDLIIKESDNNVKLIVLDRLIELKEHPAHERVLQDLVMDILRVLSTPDLEVRKKTLQLALDLVSSRNVEELVIVLKKEVIKTNNVSEHEDTDKYRQLLVRTLHSCSVRFPDMAANVIPVLMEFLSDNNEAAAADVLEFVREAIQRFDNLRMLIVEKMLEVFHAIKSVKIYRGALWILGEYCSTKEDIQSVMTEIRRSLGEIPIVESEIKKEAGELKPEEEITVGPVQKLVTEMGTYATQSALSSSRPTKKEEDRPPLRGFLLDGDFFVAASLATTLTKIALRYVALVQEKKKQNSFVAEAMLLMATILHLGKSSLPKKPITDDDVDRISLCLKVLSECSPLMNDIFNKECRQSLSHMLSAKLEEEKLSQKKESEKRNVTVQPDDPISFMQLTAKNEMNCKEDQFQLSLLAAMGNTQRKEAADPLASKLNKVTQLTGFSDPVYAEAYVHVNQYDIVLDVLVVNQTSDTLQNCTLELATLGDLKLVEKPSPLTLAPHDFANIKANVKVASTENGIIFGNIVYDVSGAASDRNCVVLSDIHIDIMDYIQPATCTDAEFRQMWAEFEWENKVTVNTNMVDLNDYLQHILKSTNMKCLTPEKALSGYCGFMAANLYARSIFGEDALANVSIEKPIHQGPDAAVTGHIRIRAKSQGMALSLGDKINLSQKKTSI
B9: CDR2L (protein, UniProt Q86X02 1-465, looked up)
Cerebellar …: MRRAAGMEDFSAEEEESWYDQQDLEQDLHLAAELGKTLLERNKELEGSLQQMYSTNEEQVQEIEYLTKQLDTLRHVNEQHAKVYEQLDLTARDLELTNHRLVLESKAAQQKIHGLTETIERLQAQVEELQAQVEQLRGLEQLRVLREKRERRRTIHTFPCLKELCTSPRCKDAFRLHSSSLELGPRPLEQENERLQTLVGALRSQVSQERQRKERAEREYTAVLQEYSELERQLCEMEACRLRVQELEAELLELQQMKQAKTYLLGPDDHLAEALLAPLTQAPEADDPQPGRGDDLGAQDGVSSPAASPGHVVRKSCSDTALNAIVAKDPASRHAGNLTLHANSVRKRGMSILREVDEQYHALLEKYEELLSKCRQHGAGVRHAGVQTSRPISRDSSWRDLRGGEEGQGEVKAGEKSLSQHVEAVDKRLEQSQPEYKALFKEIFSRIQKTKADINATKVKTHSSK
B10: HSPD1 (protein, UniProt P10809 27-573, looked up)
60 kDa heat shock protein, …: AKDVKFGADARALMLQGVDLLADAVAVTMGPKGRTVIIEQSWGSPKVTKDGVTVAKSIDLKDKYKNIGAKLVQDVANNTNEEAGDGTTTATVLARSIAKEGFEKISKGANPVEIRRGVMLAVDAVIAELKKQSKPVTTPEEIAQVATISANGDKEIGNIISDAMKKVGRKGVITVKDGKTLNDELEIIEGMKFDRGYISPYFINTSKGQKCEFQDAYVLLSEKKISSIQSIVPALEIANAHRKPLVIIAEDVDGEALSTLVLNRLKVGLQVVAVKAPGFGDNRKNQLKDMAIATGGAVFGEEGLTLNLEDVQPHDLGKVGEVIVTKDDAMLLKGKGDKAQIEKRIQEIIEQLDVTTSEYEKEKLNERLAKLSDGVAVLKVGGTSDVEVNEKKDRVTDALNATRAAVEEGIVLGGGCALLRCIPALDSLTPANEDQKIGIEIIKRTLKIPAMTIAKNAGVEGSLIVEKIMQSSSEVGYDAMAGDFVNMVEKGIIDPTKVVRTALLDAAGVASLLTTAEVVVTEIPKEEKDPGMGAMGGMGGGMGGGMF

System: GFP-14-3-3β
Experiment: GFP-14-3-3β co-IP with LC-MS/MS, untreated GFP-14-3-3β versus GFP control (14-3-3 interactome)
Type: binding, human
Settings: GFP-14-3-3β co-IP LC-MS/MS; untreated vs GFP; student's t-test; label-free quantification, 3 replicates each

Molecule	Difference (log2), untreated vs GFP [log2]
B1	1.297
B2	-1.2737
B3	0.1054
B4	1.397
B5	1.234

Same assay, conditions: log2 difference; pairwise comparison untreated vs GFP, label-free quantification, 3 replicates each

Molecule	Difference (log2), untreated vs GFP
B6	0.1883
B7	-1.034

Same assay, conditions: untreated vs GFP; LFQ intensities, replicates 1-3

Molecule	Difference (log2), untreated vs GFP [log2]
B8	0.6071
B9	4.028
B10	-0.2089

System: GFP-14-3-3β and its binding proteins
Experiment: GFP-14-3-3β co-IP with LC-MS/MS label-free quantification, untreated versus PP1c-treated
Design: species or system human
Settings: GFP-14-3-3β co-IP LC-MS/MS; PP1 vs untreated; student's t-test; label-free quantification, 3 replicates each

Difference (log2), PP1 vs untreated [log2]	Molecule
-0.69	B1
-0.7159	B2
-0.7154	B3
-0.6831	B4
-0.7331	B5

Same assay, conditions: PP1 vs untreated; LFQ intensities, replicates 1-3

Difference (log2), PP1 vs untreated [log2]	Molecule
-0.8147	B8
-0.8285	B9
-0.8196	B10

Same assay, conditions: log2 difference; pairwise comparison PP1 vs untreated, label-free quantification, 3 replicates each

Difference (log2), PP1 vs untreated	Molecule
1.651	B6
1.6514	B7
